Measured values published in the DeepSol protein solubility set.

test: soluble on expression in E. coli; label from the status in PepcDB or PDB records

| Sequence | soluble on expression in E. coli |
| --- | --- |
| MSLKLFCFKAIIFPIVGGSFNNGTNVFQSTVIVISLDGFRADYLYRGFTPNLLSLAERNVHVPFLIPSFPSITFPNHYTIVTGLYPESHGIVSNNFFDPVTGKQFVNSMPECNKDPTWWDKGEPIWVNAERNNVRSAVHMWPGNEVENHGYRPTYSDGFNFDTTLREKKDRILEWLDLPDKDRPQLLLAYAPHVDMVGHAFGPDSPELNIIIQEVDIVIGELIEGLKKRNIDKHVNIIFLSDHGMAPTSDNRLIWLDNMFNLSAVAHRDAWPLGGFRGESDLDDEYIYESLVNYSRSSLPSAENWNVYSKKDIPSRWHYSNNERIAPVWMIPDVGWSLVSMLDHSPELEYEPLGVHGYDNLSPVMRALFIASGSSFKNFKGKKLAPFQNTEIYGILSHILDLPAQPNNGTYEGALPLRRNRNSTKEWLLKDIEQAYSKLIEGHHHHHH | not soluble |
| MSLKAAVLHGTNDMRFEDIEIKPCESDEVKIKVMAAGICGSDPPRVLKHWKYPVPAIPGHEFSGVIAEVGKDVKNVKVGDRVVAIPFIPCNECEYCKRGLFSLCDDHGMLGAKSFGAFAEYVNIKATNVLPIGDMDFEDAAMIEPLAVAMHGVLNIGVQVGDTVAVMGSGTMGQLVIQGLKIAGAGTIIAVDISDNKLRESKELGADIIINAKDINPVEKIKELTGGKGVDIALECAGSKITQEQCLLITKKKSKIGFLGIAYSDITLSEEAFENIFRKELELKGFWNSYSAPFPGQEWTKGINLVNEGKIKLKEMVSHRFSLEDTYKAFEMIRDRKEEFNKILILPQGVEGHHHHHH | soluble |
| SLRAEKSDDPLYPLTIIHLNDFHARFEETNTVSTRCKPDEGERCIGGYGRVVSRVKSLQQEYADRNPIYLNAGDSFQGTIWYTLLRWNVTAYFLNLLPADAMTLGNHEFDHGVEGLVPFLGAIDSPMLVANIDDREEPTLQGKYQRNVVLERGGRKIGIIGVIHHATDTLSMTDRVRFLDEVQCINQEATALKQLGVDIIVVLSHCGFTIDQQIARECPDVDVVVGGHSHTLLHTGTVADWPDVPAGSFPFVVEQAAGRRVLIVQAGSFTKYLGHLVVYFDERGEAVRWEGNTEYLDESFPKDEQIERELVPWRTQVDALAVRPVGVSRVFLSKPACRTGECNFGSFVADAFVDYYVGRGEAEHEWTYAAIGITNDGGLRTSLAPGTLTYEDLVTAIPYENTVDTFELRGQYLLDALEYSASRYDTADVLQFAGLRVVFNLTRPALQRVQRVDVRCRVCRIPRYEPLDVNATYRIAIAAWIGSGGNGYTMFGQHRTNVRVGPLDIDVFERYVAKMSPIMQGTDGRMVFVR | not soluble |
| MGSDKIHHHHHHMENGEMIKVLLANPRGFCAGVDRAIEIVERALSVHGAPIYVRHEVVHNRFVVEDLEKKGAVFVENLDEVPAGSILIFSAHGVSHAVRREAEAGQFKVFDATCPLVTKVHIEVAKMRDQGREIIMIGHAGHPEVEGTMGQAEGDGPSMYLVETEEDVEKLQVQDPAHLAYVTQTTLSVDDANRVIQALKGRFPNILGPKKDDICYATQNRQDAVKTMVKQCDLVIVVGSPNSSNSNRLCEVARNAGVDAYMLDRAEQLQEAWLKGKMRIGITAGASAPEVLVQEVISRLRQIVSEQAEREVVVEELRGVVESVVFPLPRN | not soluble |
| MAGDPMKKTILLTMTTLTLFSMSPNSAQAYTNDSKTLEEAKKAHPNAQFKVNKDTGAYTYTYDKNNTPNNNHQNQSRTNDNHQHANQRDLNNNQYHSSLSGQYTHINDAIDSHTPPQTSPSNPLTPAIPNVEDNDDELNNAFSKDNKGLITGIDLDELYDELQIAEFNDKAKTADGKPLALGNGKIIDQPLITSKNNLYTAGQCTWYVFDKRAKDGHTISTFWGDAKNWAGQASSNGFKVDRHPTRGSILQTVNGPFGHVAYVEKVNIDGSILISEMNWIGEYIVSSRTISASEVSSYNYIHLEHHHHHH | not soluble |
| MVTQILGAMESQVGGGPAGPALPNGPLLGTNGATDDSKTNLIVNYLPQNMTQDEFKSLFGSIGDIESCKLVRDKITGQSLGYGFVNYSDPNDADKAINTLNGLKLQTKTIKVSYARPSSASIRDANLYVSGLPKTMSQKEMEQLFSQYGRIITSRILVDQVTGVSRGVGFIRFDKRIEAEEAIKGLNGQKPLGAAEPITVKFANNPSQKTGQALLTHLYQSSARRYAGPLHHQTQRFRLDNLLNMAYGVKSPLSLIARFSPIAIDGMSGLAGVGLSGGAAGAGWCIFVYNLSPEADESVLWQLFGPFGAVTNVKVIRDFTTNKCKGFGFVTMTNYDEAAMAIASLNGYRLGERVLQVSFKTSKQHKA | soluble |
| MGSDKIHHHHHHARLNAFKQLTPGSDVRDWIAAAGQVGGLGAADLNFPDHFAVYDADQMGNFLGEAALTLNGIAMRYYTDPGFKLGAFTHPDAAVRQAALDVTKQGIDTCARMGGKTVTLWMGQDGFDYAFQMDYGLAWDRTVAAIADICAHDPNIDIAIEYKPNEPRAFALMPDIGTTLLACREVGAVNLGVTLDFAHVLYADEMPAHSAALIGRHSRMIGLHLNDGYGKRDDGLMVGSVHAIQTVELLVAMLRMGQTDVIYFDTFPDMGGLNPIEEARTNVAVTDRLMAVAESLMEDPALAQAIDRQDAAASHRIVARALYGS | not soluble |
| MGSDKIHHHHHHMTRIASHRGGTLEFGDSTPHGFTATAAMALEEVEFDLHPTADGAIVVHHDPTLDATTDMTGAIVDMTLAKVKTATIRYGAGSHPMTLEELCALYVDSHVNFRCEIKPGVDGLPYEGFVALVIAGLERHSMLERTTFSSFLLASMDELWKATTRPRLWLVSPSVLQQLGPGAVIETAIAHSIHEIGVHIDTADAGLMAQVQAAGLDFGCWAAHTPSQITKALDLGVKVFTTDRPTLAIALRTEHRMEASV | not soluble |
| MSLGDQLKIIQDGQSFAFSLDTLLLAYWAKEAIKNRSKVVELCSGNAAASLYMAAFNKAHYDDVELQEDIVSKARRSVELNDMQDRITVHQGNVKDAGSFLRKDSYDVVVVNPPYFKAPAGHKLNPDRSKAIARHELEINLEEIIAVSAGLLKMKGKMFMVHRPERLGEIINYGFKHDLAVKTVQPFVSRRGQDANLVIVEAVRSGKGDGLVLRDAIEVHEADGSNTPAIKEILEAKEGHHHHHH | soluble |
| MGHHHHHHSHMESVALYSFQATESDELAFNKGDTLKILNMEDDQNWYKAELRGVEGFIPKNYIRVKPHPWYSGRISRQLAEEILMKRNHLGAFLIRESESSPGEFSVSVNYGDQVQHFKVLREASGKYFLWEEKFNSLNELVDFYRTTTIAKKRQIFLRDEEPLLKSPGACFAQAQFDFSAQDPSQLSFRRGDIIEVLERPDPHWWRGRSCGRVGFFPRSYVQPVHL | not soluble |
| MAHHHHHHMTVEDQVDHLLAPQRDGQENIQQRQEFNGFVHWGLLHGAHMVLEENQDTKRAHEFVNRYMRDIDLFEKWLEHPKVRAHIQKKFGIDMSAKFDKLMALTMAMYTRSKIQVYEDDPAGALKSLTASMSFITEGADLKKERHRKALGAVLVARGMIHCKLKSFHRADDDLTRALAFVKANRSATLYQLRAEAREALGHIDEARADEERAAQIWEEAEVITPGMDGAPRKFVT | soluble |
| MAKAPDVVDLLALAVERGASDLVITVGLPPMLKIDGEFHPTEYEPLTPQETRRLMYALMDEKQQRIFEEEKELDFSFSLPGKGRYRVNVFLQRGSVGGVLRVVPSAVKSFEELGLPKNIAEIAMSPRGLVLVTGPTGSGKSTTLASMIDYINERKACHIVTIEDPIEFFHKHKRAIVNQREIGSDTKSFHKALRSVLRQAPDVILVGEMRDYETIAAAITAAETGHLVMGTLHTNSAPETIDRIVDVFPENQQEQVRVQLSNNLVAVLTQQLLPKAFGGGRVLAYELMIATPAVRALIREGKTHQLRSVIQTGGQYGMITMDACLADLYRRKLITYEMGLARAVDPKEFMRLAGAPEGARR | soluble |
| MGSDKIHHHHHHLAKRKNHAQAIETTGANLGFEPQLWQTANALRGSMDAAEYKHVVLGLIFLKYISDAFEEHRERLQNIPNADPEDPDEYRADNVFWVPPDARWVELRNNARQPNIGELIDQAMIAVERDNPSLKGVLPKDYARPALDQQRLGQLIDLVSNIPVGTASARSKDVLGRVYEYFLSQFASAEGKKGGEFYTPRCVVRLLVEMLEPYQGRVYDPCCGSAGMFIQSVEFIEAHATGNGNGSRARARISIYGQELNYTTWRLAKMNLAIRGIDGRIEQGDTFRNDRFPDLKADYILANPPFNMKEWGGEQLRNDKRWQYGIPPVGNANFAWVQHIVHHLAPAGVAGFVLANGSMSSNQSGEGEIRRKLIEADLVDCMVALPGQLFYSTQIPACLWFLARNRNNGKFRDRRKQILFIDARRLGRMVDRIHRELTDEEIERIACTYHAWRGESDAGEYRDIPGFCKSASLEDVRKHGYVLTPGRYVGSEVREDDDEPFAEKMQWLVAQLREQQAEAAKLDEAIVANLQELGFWEQKR | not soluble |
| MGSDKIHHHHHHMPQRIDLRVRPEEATDEQILRKHVARQTKTDPTDIHTIIIRRRSIDARQRQVYVNLGLEVYSGSESPVEDDFSDLIYPSVEGKTAVIVVGAGPAGLFAALRLIELGLRPIILERGKSVHERRADIARIPKEGHVDPESNYGFGEGGAGAFSDGKLYTRSKKRGDITKILRILCKHGAQPSILIDAHPHIGTDRLPKVIENIRHQILAAGGEVHFSCRMESLIIHNGQVVGARDNKGREYCGPVILATGHSARDIYRYLHRNGIRMEAKGTAVGVRLEHPQALIDQLRYHNPKGRGLYLPPAEYTYTAQVEGRGVYSFCMCPGGFVVPASTAPDQTVVNGMSPANRGSRWANSGLVVEIHPEDVLSTPTNDPLALMNWIERLEGESWTQARCSLRAPAQRMTDFLSGRSSVDLPKSSYNMGLTPSRLDEWLPSFITKRIQKAFQLFDRQTKGFLTAEAQLIALESRTSSPVRILRESTSCEHPLLRGLFPCGEGAGYAGGIVSAAMDGERCAEGVASYLG | not soluble |
| MGSDKIHHHHHHAQDKPQEEGFVFTTVKENPITSIKNQNRSSTCWSFSSLGFLESELLRTGKGEYDLSEMFVVHHTMVDRAVNYVRYHGDSSFSPGGSFYDIMFCMKNYGLVPQDAMPGIMYGDSLPVHNELDATAGAYVNAIAKGNLKKLTPVWKKGLCAIYDTYLGQCPEKFTYKGKEYTPMTFAQSLGLNPDDYVSLTSYTHHPFYSQFAIEIQDNWRNGLSYNLPLDEFMAVMDNAVKNGYTFAWGSDVSEEGFTRDGIAVVPDAAKGAELTGSDMARWTGMTAADKRKELTSKPLPEMKITQEMRQTAFDNWETTDDHGMIIYGIAKDQNGKEYFMVKNSWGTNNKYKGTWYASKAFVAYKTMNILVHKDALPKDIAKKLGIK | not soluble |
| SSDVTFLVEGRPFYAHKVLLFTASPRFKALLSSKPTNDNTCIEIGYVKYPIFQLVMQYLYYGGPESLLIKNNEIMELLSAAKFFQLEALQRHCEIICAKSINTDNCVDIYSHAKFLGVTELSAYCEGYFLKNMMVLIENEAFKQLLYDKNGEGAGQDVLQDLQRTLAIRIQSIHLSSSKGSVV | soluble |
| MKIIYCITKADNGGAQTHLIQLANHFCVHNDVYVIVGNHGPMIEQLDARVNVIIIEHLVGPIDFKQDILAVKVLAQLFSKIKPDVIHLHSSKAGTVGRIAKFISKSKDTRIVFTAHGWAFTEGVKPAKKFLYLVIEKLMSLITDSIICVSDFDKQLALKYRFNRLKLTTIHNGIADVPAVKQTLKSQSHNNIGEVVGMLPNKQDLQINAPTKHQFVMIARFAYPKLPQNLIAAIEILKLHNSNHAHFTFIGDGPTLNDCQQQVVQAGLENDVTFLGNVINASHLLSQYDTFILISKHEGLPISIIEAMATGLPVIASHVGGISELVADNGICMMNNQPETIAKVLEKYLIDSDYIKMSNQSRKRYLECFTEEKMIKEVEDVYNGKSTQ | not soluble |
| MSFELPALPFAKDALEPHISAETLDYHHGKHHNTYVVKLNGLIPGTEFEGKTLEEIIKTSTGGVFNNAAQIWNHTFYWNCLAPNAGGQPTGAVAAAIDAAFGSFEEFKAKFTDSAINNFGSSWTWLVKNADGSLAIVNTSNAATPLTDEGVTPLLTVDLWEHAYYIDFRNVRPDYMGAFWSLVNWSFVEENLAK | soluble |
